The assay addresses Transferrin receptor 1 (human (endogenous in HeLa)) (UniProt P02786).

Chain of human H-ferritin loaded with about 350 iron ions per cage (P02794 whole entry): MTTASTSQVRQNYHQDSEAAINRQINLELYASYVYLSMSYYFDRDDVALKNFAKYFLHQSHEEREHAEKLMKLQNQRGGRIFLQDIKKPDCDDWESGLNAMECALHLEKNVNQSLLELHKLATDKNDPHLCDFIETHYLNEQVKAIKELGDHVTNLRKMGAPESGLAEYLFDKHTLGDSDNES
Chain of Transferrin receptor 1 (human (endogenous in HeLa)) (P02786 whole entry): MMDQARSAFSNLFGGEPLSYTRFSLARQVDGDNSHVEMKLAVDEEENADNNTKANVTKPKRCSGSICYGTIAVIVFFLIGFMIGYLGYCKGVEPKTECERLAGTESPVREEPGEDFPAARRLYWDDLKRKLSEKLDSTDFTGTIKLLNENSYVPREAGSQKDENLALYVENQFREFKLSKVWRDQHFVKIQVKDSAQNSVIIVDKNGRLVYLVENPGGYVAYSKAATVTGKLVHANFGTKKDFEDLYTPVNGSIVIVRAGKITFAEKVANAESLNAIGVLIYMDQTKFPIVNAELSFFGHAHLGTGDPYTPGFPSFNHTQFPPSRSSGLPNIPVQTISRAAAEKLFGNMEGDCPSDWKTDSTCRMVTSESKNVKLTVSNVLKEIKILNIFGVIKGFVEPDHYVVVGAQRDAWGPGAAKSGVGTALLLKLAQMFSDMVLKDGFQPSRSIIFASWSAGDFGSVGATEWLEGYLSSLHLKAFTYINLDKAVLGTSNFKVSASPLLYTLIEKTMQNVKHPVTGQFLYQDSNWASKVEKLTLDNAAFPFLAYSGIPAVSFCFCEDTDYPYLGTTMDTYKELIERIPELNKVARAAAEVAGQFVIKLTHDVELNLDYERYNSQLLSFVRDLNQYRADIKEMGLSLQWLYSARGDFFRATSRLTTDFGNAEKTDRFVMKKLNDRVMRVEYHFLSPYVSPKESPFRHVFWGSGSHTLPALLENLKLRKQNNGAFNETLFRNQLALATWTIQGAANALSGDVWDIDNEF

Substance “human H-ferritin loaded with about 350 iron ions per cage (from UniProt P02794 1-183) (natural protein)” returned an iron uptake by HeLa cells (ICP-MS of lysates) after 5 h with H-350 1 μM: decrease of uptake when 20 μM Holo-transferrin was added to the medium of 50%.

(Values after PMC6021343.)
